Values of other authors as cited in publication PMC8776070.

Experiments:
[1] = target: CXCR1 (Homo sapiens) (UniProt P25024)
[2] = target: ACKR1 (Homo sapiens) (UniProt Q16570)
[3] = target: CXCR2 (Homo sapiens) (UniProt P25025)
Chain of UniProt P25025 (P25025 whole entry): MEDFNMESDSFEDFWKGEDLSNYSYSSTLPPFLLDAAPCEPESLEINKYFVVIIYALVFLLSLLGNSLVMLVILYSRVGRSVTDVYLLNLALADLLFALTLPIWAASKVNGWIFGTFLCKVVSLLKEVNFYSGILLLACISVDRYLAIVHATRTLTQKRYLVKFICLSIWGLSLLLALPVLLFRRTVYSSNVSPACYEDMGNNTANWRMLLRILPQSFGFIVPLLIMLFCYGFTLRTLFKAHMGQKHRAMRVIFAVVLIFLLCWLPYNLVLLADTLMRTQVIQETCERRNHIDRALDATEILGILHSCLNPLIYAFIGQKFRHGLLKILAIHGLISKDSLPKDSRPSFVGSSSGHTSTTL

Chain of UniProt Q16570 (Q16570 whole entry): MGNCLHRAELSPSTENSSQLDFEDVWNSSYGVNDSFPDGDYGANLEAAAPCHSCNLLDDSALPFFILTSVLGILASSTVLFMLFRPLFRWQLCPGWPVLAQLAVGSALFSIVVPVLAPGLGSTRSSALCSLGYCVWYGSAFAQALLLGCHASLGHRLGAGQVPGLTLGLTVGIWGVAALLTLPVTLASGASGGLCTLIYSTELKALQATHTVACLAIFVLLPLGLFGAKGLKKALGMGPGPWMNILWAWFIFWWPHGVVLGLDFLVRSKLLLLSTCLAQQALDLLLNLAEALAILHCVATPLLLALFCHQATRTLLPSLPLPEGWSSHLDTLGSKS
Chain of UniProt P25024 (P25024 whole entry): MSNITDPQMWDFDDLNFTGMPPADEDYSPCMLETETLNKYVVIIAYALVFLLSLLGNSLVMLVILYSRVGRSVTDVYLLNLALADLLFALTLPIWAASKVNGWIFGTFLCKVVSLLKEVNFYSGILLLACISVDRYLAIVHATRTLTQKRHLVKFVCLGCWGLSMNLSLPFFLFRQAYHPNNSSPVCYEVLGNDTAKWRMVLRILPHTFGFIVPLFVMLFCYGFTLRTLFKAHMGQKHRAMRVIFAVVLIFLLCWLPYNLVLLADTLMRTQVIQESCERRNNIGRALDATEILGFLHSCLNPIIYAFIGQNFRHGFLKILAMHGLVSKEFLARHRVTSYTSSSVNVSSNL

Question: For CXCL1 (from UniProt P09341), which Kd [1] is on record?
Answer: The Kd was 300 nM.

Question: And the Kd [2]?
Answer: The Kd was 1.81 nM.

Question: What about the Kd [3] of the same substance?
Answer: The Kd was 3 nM.
